No end group written: not given here. *: point of attachment. Biotin = O=C1N[C@H]2[C@H](CS[C@H]2CCCCC(=O)*)N1

In the assay the target is yeast 26S proteasome (RPN11-3XFLAG) (yeast, UniProt P43588 1-306). Nature of the assay: ELISA; competition: 8 nM apoMb on immobilised 26S proteasome with peptides 100 µM to 0.01 µM; 100 nM MG132 in all incubations; Ki from a one site binding fit. To be noted: both partners purified. On the technique in general: ELISA stands for enzyme-linked immunosorbent assay.

The term Ki denotes the dissociation constant of the complex between target and ligand, obtained from inhibition or displacement. A high value points to lower affinity. For the molecule Biotin-EWQLVLHVWAKVEAD [A-helix peptide of myoglobin], the Ki was 800 ± 400 nM.

The values are drawn from PMC3323579, “Direct Ubiquitin Independent Recognition and Degradation of a Folded Protein by the Eukaryotic Proteasomes-Origin of Intrinsic Degradation Signals” (PLoS ONE, 2012).
